Molecular target: T1, MutLα (MLH1/PMS2 heterodimer), recombinant human (human, UniProt P40692 1-756; P54278 1-862)
T1 construct: MLH1 subunit of human MutLα; PMS2 subunit of human MutLα; Heterodimer; source: recombinant (details in SI Appendix)
Experiment: far-Western, overlay or dot blot; far-western analysis of FAN1 and MutLα (SI Appendix, Fig. S4E); which protein was spotted is not told in the main text
Settings: both partners purified

- binding result: binds
B1: FAN1 (FANCD2 and FANCI-associated nuclease 1), recombinant full-length human (enzyme, UniProt Q9Y2M0 1-1017, looked up)
chain: MMSEGKPPDKKRPRRSLSISKNKKKASNSIISCFNNAPPAKLACPVCSKMVPRYDLNRHLDEMCANNDFVQVDPGQVGLINSNVSMVDLTSVTLEDVTPKKSPPPKTNLTPGQSDSAKREVKQKISPYFKSNDVVCKNQDELRNRSVKVICLGSLASKLSRKYVKAKKSIDKDEEFAGSSPQSSKSTVVKSLIDNSSEIEDEDQILENSSQKENVFKCDSLKEECIPEHMVRGSKIMEAESQKATRECEKSALTPGFSDNAIMLFSPDFTLRNTLKSTSEDSLVKQECIKEVVEKREACHCEEVKMTVASEAKIQLSDSEAKSHSSADDASAWSNIQEAPLQDDSCLNNDIPHSIPLEQGSSCNGPGQTTGHPYYLRSFLVVLKTVLENEDDMLLFDEQEKGIVTKFYQLSATGQKLYVRLFQRKLSWIKMTKLEYEEIALDLTPVIEELTNAGFLQTESELQELSEVLELLSAPELKSLAKTFHLVNPNGQKQQLVDAFLKLAKQRSVCTWGKNKPGIGAVILKRAKALAGQSVRICKGPRAVFSRILLLFSLTDSMEDEDAACGGQGQLSTVLLVNLGRMEFPSYTINRKTHIFQDRDDLIRYAAATHMLSDISSAMANGNWEEAKELAQCAKRDWNRLKNHPSLRCHEDLPLFLRCFTVGWIYTRILSRFVEILQRLHMYEEAVRELESLLSQRIYCPDSRGRWWDRLALNLHQHLKRLEPTIKCITEGLADPEVRTGHRLSLYQRAVRLRESPSCKKFKHLFQQLPEMAVQDVKHVTITGRLCPQRGMCKSVFVMEAGEAADPTTVLCSVEELALAHYRRSGFDQGIHGEGSTFSTLYGLLLWDIIFMDGIPDVFRNACQAFPLDLCTDSFFTSRRPALEARLQLIHDAPEESLRAWVAATWHEQEGRVASLVSWDRFTSLQQAQDLVSCLGGPVLSGVCRHLAADFRHCRGGLPDLVVWNSQSRHFKLVEVKGPNDRLSHKQMIWLAELQKLGAEVEVCHVVAVGAKSQSLS
notes: FAN1 (FANCD2 and FANCI-associated nuclease 1), human, full length; also called FAN1 nuclease; source: recombinant; prepared as per previously established procedures (details in SI Appendix)
